Results: ChEMBL document CHEMBL2074044, “Two distinct mechanisms for bilirubin glucuronide transport by rat bile canalicular membrane vesicles. Demonstration of defective ATP-dependent transport in rats (TR-) with inherited conjugated hyperbilirubinemia” (J Clin Invest, 1992)

Substrate: C=CC1=C(C)/C(=C/c2[nH]c(Cc3[nH]c(/C=C4\NC(=O)C(C)=C4C=C)c(C)c3CCC(=O)O[C@@H]3O[C@@H](C(=O)O)[C@H](O)[C@@H](O)[C@@H]3O)c(CCC(=O)O[C@@H]3O[C@H](C(=O)O)[C@H](O)[C@H](O)[C@@H]3O)c2C)NC1=O
Test: TP_TRANSPORTER: uptake in bile canalicular membranes from Wistar rat
Format: functional, cell membranes, Bile canalicular membrane

B1: ATP-binding cassette sub-family C member 2 (Rattus norvegicus) (protein)
chain: MDKFCNSTFWDLSLLESPEADLPLCFEQTVLVWIPLGFLWLLAPWQLYSVYRSRTKRSSITKFYLAKQVFVVFLLILAAIDLSLALTEDTGQATVPPVRYTNPILYLCTWLLVLAVQHSRQWCVRKNSWFLSLFWILSVLCGVFQFQTLIRALLKDSKSNMAYSYLFFVSYGFQIVLLILTAFSGPSDSTQTPSVTASFLSSITFSWYDRTVLKGYKHPLTLEDVWDIDEGFKTRSVTSKFEAAMTKDLQKARQAFQRRLQKSQRKPEATLHGLNKKQSQSQDVLVLEEAKKKSEKTTKDYPKSWLIKSLFKTFHVVILKSFILKLIHDLLVFLNPQLLKLLIGFVKSSNSYVWFGYICAILMFAVTLIQSFCLQSYFQHCFVLGMCVRTTVMSSIYKKALTLSNLARKQYTIGETVNLMSVDSQKLMDATNYMQLVWSSVIQITLSIFFLWRELGPSILAGVGVMVLLIPVNGVLATKIRNIQVQNMKNKDKRLKIMNEILSGIKILKYFAWEPSFQEQVQGIRKKELKNLLRFGQLQSLLIFILQITPILVSVVTFSVYVLVDSANVLNAEKAFTSITLFNILRFPLSMLPMVTSSILQASVSVDRLERYLGGDDLDTSAIRRVSNFDKAVKFSEASFTWDPDLEATIQDVNLDIKPGQLVAVVGTVGSGKSSLVSAMLGEMENVHGHITIQGSTAYVPQQSWIQNGTIKDNILFGSEYNEKKYQQVLKACALLPDLEILPGGDMAEIGEKGINLSGGQKQRVSLARAAYQDADIYILDDPLSAVDAHVGKHIFNKVVGPNGLLAGKTRIFVTHGIHFLPQVDEIVVLGKGTILEKGSYRDLLDKKGVFARNWKTFMKHSGPEGEATVNNDSEAEDDDDGLIPTMEEIPEDAASLAMRRENSLRRTLSRSSRSSSRRGKSLKNSLKIKNVNVLKEKEKEVEGQKLIKKEFVETGKVKFSIYLKYLQAVGWWSILFIILFYGLNNVAFIGSNLWLSAWTSDSDNLNGTNNSSSHRDMRIGVFGALGLAQGICLLISTLWSIYACRNASKALHGQLLTNILRAPMRFFDTTPTGRIVNRFSGDISTVDDLLPQTLRSWMMCFFGIAGTLVMICMATPVFAIIIIPLSILYISVQVFYVATSRQLRRLDSVTKSPIYSHFSETVTGLPIIRAFEHQQRFLAWNEKQIDINQKCVFSWITSNRWLAIRLELVGNLVVFCSALLLVIYRKTLTGDVVGFVLSNALNITQTLNWLVRMTSEAETNIVAVERISEYINVENEAPWVTDKRPPADWPRHGEIQFNNYQVRYRPELDLVLKGITCNIKSGEKVGVVGRTGAGKSSLTNCLFRILESAGGQIIIDGIDVASIGLHDLRERLTIIPQDPILFSGSLRMNLDPFNKYSDEEVWRALELAHLRSFVSGLQLGLLSEVTEGGDNLSIGQRQLLCLGRAVLRKSKILVLDEATAAVDLETDSLIQTTIRKEFSQCTVITIAHRLHTIMDSDKIMVLDNGKIVEYGSPEELLSNRGSFYLMAKEAGIENVNHTEL
Km: 71 µM
